This note sets out measurements from patent US20190002533A1 (Novartis, published 2019).

Assay [1] deals with VP1 on chimeric infectious BKV serotype II (BK virus (BKV) serotype II, UniProt P14996 1-362). Nature of the assay: cell-based or functional assay.
The target in assay [2] is T1, JCV VLPs (JC virus (JCV), UniProt P03089 1-354).
T1 construct: also called JC virus VLPs; JCV consensus
Nature of the assay: ELISA on plate-coated JCV VLPs (OD 450 nm).

The target in assay [3] is VP1 of the pooled BKV serotype I resistance-associated variant (RAV) virus with 20 amino acid changes (BK virus (BKV) serotype I). Kind of assay: cell-based or functional assay.

B1: NEG447A (antibody, human IgG1, lambda, V domains shown)
VH: QVQLQESGPGLVKPSETLSLTCTVSGGSISRDYWSWVRQPPGAGLEWIGNIYYSGSTNYNPSLKSRVTISVATNKKQFSLKLTSVTAADTAVYYCARVPGCSSTSCIDGWFDPWGQGILVTVSS
VL: QSVLTQPPSVSAAPGQKVTISCSGSSSNIGNTYVSWYQQLPGTAPKLLIYDNNKRPSGIPDRFSGSKSGTSATLGITGLQTGDEADYYCGTWDSSLSAWVFGGGTRLTVLG
Turning to B1, the “EC90 of neutralisation, fold change” value in assay [1] was about 8 fold.

B2: 2077-26-1 (antibody, V domains shown)
VH: EVQLQQSGPDLVKPGASMKLSCKASGYSFTGYTMNWVKQSHGKNLEWIGLFNPYNGGPSYNQKFKGKATLTVDKSSSTAYMELLSLTPEDSAVYYCARLRYYGIGDDFFDYWGQGTTLTVSS
VL: DIVMTQSHKFMSTSVGDRVSITCKASQDVGTAVAWYQEKPGQSPKLLIYWASTRHTGVPDRFTGSGSGTDFTLTISNVQSEDLAYYFCQQYSNYPYTFGGGTKLEIK
Usually EC50 (read off the curve) stands for the concentration that produces a half-maximal response. As for B2, in assay [2], the “EC50 (read off the curve)” value was about 0.07 nM.

B3: 2077-28-2 (antibody, V domains shown)
VH: EVQLQQSGPELVKPGASMKISCKASGYSFTGYTMNWVKQSHGKNLEWIGLFNPYNGGATYNQRFKGKATLTVDKSSSTAYMDLLSLTSEDSAVYYCTRLRKYGIGDDFFDYWGQGTTLTVSS
VL: DIVMTQSHKFMSTSVGDRVSITCKASQDVGTAVAWYQQKPGQSPKLLIYWASTRHTGVPDRFTGSGSGTDFTLTISNVQSEDLADYFCQQYSTYTYTFGGGTKLEIK
Consider B3, for which the “EC50 (read off the curve)” value in assay [2] was about 0.08 nM.

B4: P8D11 (antibody, human IgG1, lambda)
heavy: not shown
light: QSVLTQPPSVSVAPGKTARITCGGDNIGSRPVHWYQQKPGQAPILVVYDDSNRPSGIPERFSGSNSGNTATLTISRVEAGDEADYYCQVWSSSTDHPFGGGTKVTVLGQPKAAPSVTLFPPSSEELQANKATLVCLISDFYPGAVTVAWKADSSPVKAGVETTTPSKQSNNKYAASSYLSLTPEQWKSHRSYSCQVTHEGSTVEKTVAPTECS
As to B4, the “shift in EC50 of neutralisation against wild-type virus” value in assay [3] turned out to be 3.9 fold.
